Laboratory results: US20140296146A1, “Thermostable Inhibitors of Activation of the Blood Clotting System Through Contact with Foreign Surfaces” (Synapse B.V., priority 2011, published 2014)

Experiments:
h-FXIIa [1] = target: T1, h-FXIIa (human, UniProt P00748 20-615); assay: S2302 hydrolysis by h-FXIIa (5.01 nM); inhibitor kept at -80° C. (reference)
T1 construct: also called factor XIIa
T1 sequence (looked up): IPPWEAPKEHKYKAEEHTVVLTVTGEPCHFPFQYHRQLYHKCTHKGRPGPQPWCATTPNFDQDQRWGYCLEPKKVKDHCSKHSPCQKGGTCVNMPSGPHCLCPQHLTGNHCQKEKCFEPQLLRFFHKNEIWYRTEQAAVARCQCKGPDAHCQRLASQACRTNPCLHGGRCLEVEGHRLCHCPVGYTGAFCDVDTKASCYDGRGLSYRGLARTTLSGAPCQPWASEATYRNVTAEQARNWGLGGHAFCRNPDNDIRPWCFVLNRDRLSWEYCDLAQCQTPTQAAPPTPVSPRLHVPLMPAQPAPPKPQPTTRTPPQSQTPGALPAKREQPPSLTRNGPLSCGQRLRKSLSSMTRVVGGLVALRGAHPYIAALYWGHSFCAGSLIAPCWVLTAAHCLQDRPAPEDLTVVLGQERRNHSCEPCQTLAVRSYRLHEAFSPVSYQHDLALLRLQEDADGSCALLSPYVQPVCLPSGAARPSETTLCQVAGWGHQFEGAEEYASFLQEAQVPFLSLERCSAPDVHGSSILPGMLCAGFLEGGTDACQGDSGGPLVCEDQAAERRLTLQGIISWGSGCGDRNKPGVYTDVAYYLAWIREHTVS
Procedure: (§1) Stock FXIIa was diluted 700× in BSA5. The inhibitor was diluted in BSA5 as indicated. Wells contained 70 μl diluted FXIIa (5 nM final), 70 μl inhibitor and 20 μl S2302 (475 or 462.5 μM final). The reaction was started after 5 min heating on the heating plate with S2302. Filters 405 nm and 490 nm reference. Found ΔmA/min was multiplied by 2.14 to get the figure for a 1 cm path.

h-FXIIa [2] = target: T1, h-FXIIa; assay: S2302 hydrolysis by h-FXIIa (5.01 nM); inhibitor kept at -80° C.
Procedure: as §1

contact activation = assay: Clotting time of blood taken on inhibitor only, without Ca2+ binding substance; details: tube heated for one hour in boiling water; 10 μg/ml
Procedure: Indeed STI inhibited contact activation so well that blood taken on a solution not containing sodium citrate or another substance that binds Ca^2+ ions but only STI (10 μg/ml) remained fluid for over 45 minutes, under conditions where in absence of STI it would clot in less than 5 min. […] CTI under similar circumstances, at 10 μg/ml, lost much of its activity because a clotting time of <15 min. was observed.

h-FXIIa [3] = target: T1, h-FXIIa; assay: S2302 hydrolysis by h-FXIIa, fit of residual activity
Procedure: as §1, with “mΔA/min” for “ΔmA/min”
(§2) in which E=[FXIIa], Ki is the dissociation constant, I=[Inhibitor], kcat and Km are Michaelis constants and S=[S2302].

h-FXIIa [4] = target: T1, h-FXIIa; assay: S2302 hydrolysis by h-FXIIa (5 nM), fit of residual activity; dissociation constant of the complex
Procedure: as §1, with “mΔA/min” for “ΔmA/min”
as §2

h-FXIIa [5] = target: T1, h-FXIIa; assay: S2302 hydrolysis by h-FXIIa (5.01 nM); inhibitor 30 min 95° C.
Procedure: as §1

h-FXIIa [6] = target: T1, h-FXIIa; assay: S2302 hydrolysis by h-FXIIa (5.01 nM); inhibitor at RT during 72 hrs
Procedure: as §1

h-FXIIa [7] = target: T1, h-FXIIa; assay: S2302 hydrolysis by h-FXIIa (5.01 nM); inhibitor at RT during 72 hrs, against -80° C.
Procedure: as §1

Res. Act. (%) (h-FXIIa [1]): 100%
Ki (h-FXIIa [2]): 3.59 nM
clotting time of blood after sterilization of the tube containing inhibitor (contact activation): < 15 min
Ki (h-FXIIa [3]): 2.9 nM
Ki (h-FXIIa [4]): 2.9 nM
Ki (h-FXIIa [5]): 5.1 nM
Ki (h-FXIIa [6]): 4.19 nM
Res. Act. (%) (h-FXIIa [7]): 86%
B1: Corn trypsin inhibitor (other, UniProt P01088 29-138, looked up)
chain: SAGTSCVPGWAIPHNPLPSCRWYVTSRTCGIGPRLPWPELKRRCCRELADIPAYCRCTALSILMDGAIPPGPDAQLEGRLEDLPGCPREVQRGFAATLVTEAECNLATIS
notes: also called CTI
